According to patent US8883410B2, “Method for determining the stability of organic methyleneamines in the presence of semicarbazide-sensitive amine oxidase” (Sanofi, priority 2007, dated 2014):

Molecular target: T1, recombinant human SSAO (Homo sapiens, UniProt Q16853)
T1 construct: expressed in transfected cells; cell lysate
T1 sequence (Q16853 1-763): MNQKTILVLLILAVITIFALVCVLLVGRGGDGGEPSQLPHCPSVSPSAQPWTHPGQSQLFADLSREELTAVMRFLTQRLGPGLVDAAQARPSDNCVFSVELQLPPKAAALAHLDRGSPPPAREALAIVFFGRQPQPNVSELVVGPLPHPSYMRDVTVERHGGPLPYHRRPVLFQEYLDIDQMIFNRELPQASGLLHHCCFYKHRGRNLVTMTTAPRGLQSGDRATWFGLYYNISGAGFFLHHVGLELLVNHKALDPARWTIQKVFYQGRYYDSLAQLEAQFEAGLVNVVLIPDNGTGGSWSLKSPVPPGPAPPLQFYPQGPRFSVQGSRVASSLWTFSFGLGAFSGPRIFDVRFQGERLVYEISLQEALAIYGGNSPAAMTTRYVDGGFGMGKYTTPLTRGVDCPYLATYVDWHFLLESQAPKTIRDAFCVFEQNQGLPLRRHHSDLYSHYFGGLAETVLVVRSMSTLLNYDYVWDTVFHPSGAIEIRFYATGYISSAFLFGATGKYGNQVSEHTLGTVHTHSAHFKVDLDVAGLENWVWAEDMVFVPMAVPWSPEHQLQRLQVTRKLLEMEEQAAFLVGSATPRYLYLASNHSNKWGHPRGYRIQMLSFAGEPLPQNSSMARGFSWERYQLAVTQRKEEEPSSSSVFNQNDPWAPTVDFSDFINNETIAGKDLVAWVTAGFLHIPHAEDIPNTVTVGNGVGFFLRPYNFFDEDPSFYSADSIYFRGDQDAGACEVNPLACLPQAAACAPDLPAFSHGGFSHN
Experiment: Amplex Red assay of specific activity of recombinant human SSAO
Assay type: biochemical
Source text: The Amplex Red assay (a commercially available assay), was used initially to measure the specific activity of the recombinant human SSAO. Amplex Red is a colorless and nonfluorescent derivative of dihydroresorufin. In the presence of amine oxidases and SSAO, the Amplex Red reacts with H2O2 to produce the highly fluorescent product, resorufin. Resorufin has an excitation maximum at 563 nm and emission maximum at 587 nm and the assay can be quantified by reading the microtitre plate at 587 nm. The specific activity of recombinant SSAO was determined to be 280 pmol/min/mg protein and this was determined to be equivalent to the specific activity of SSAO found in human lung tissue. For subsequent assays to profile compounds in the LC/MS/MS assay, recombinant human SSAO (rhSSAO) was used at this defined specific activity.

B1: recombinant SSAO: recombinant human SSAO, full-length untagged, in CHO Flp-In cell lysate (protein, UniProt Q16853 1-763, looked up)
chain: MNQKTILVLLILAVITIFALVCVLLVGRGGDGGEPSQLPHCPSVSPSAQPWTHPGQSQLFADLSREELTAVMRFLTQRLGPGLVDAAQARPSDNCVFSVELQLPPKAAALAHLDRGSPPPAREALAIVFFGRQPQPNVSELVVGPLPHPSYMRDVTVERHGGPLPYHRRPVLFQEYLDIDQMIFNRELPQASGLLHHCCFYKHRGRNLVTMTTAPRGLQSGDRATWFGLYYNISGAGFFLHHVGLELLVNHKALDPARWTIQKVFYQGRYYDSLAQLEAQFEAGLVNVVLIPDNGTGGSWSLKSPVPPGPAPPLQFYPQGPRFSVQGSRVASSLWTFSFGLGAFSGPRIFDVRFQGERLVYEISLQEALAIYGGNSPAAMTTRYVDGGFGMGKYTTPLTRGVDCPYLATYVDWHFLLESQAPKTIRDAFCVFEQNQGLPLRRHHSDLYSHYFGGLAETVLVVRSMSTLLNYDYVWDTVFHPSGAIEIRFYATGYISSAFLFGATGKYGNQVSEHTLGTVHTHSAHFKVDLDVAGLENWVWAEDMVFVPMAVPWSPEHQLQRLQVTRKLLEMEEQAAFLVGSATPRYLYLASNHSNKWGHPRGYRIQMLSFAGEPLPQNSSMARGFSWERYQLAVTQRKEEEPSSSSVFNQNDPWAPTVDFSDFINNETIAGKDLVAWVTAGFLHIPHAEDIPNTVTVGNGVGFFLRPYNFFDEDPSFYSADSIYFRGDQDAGACEVNPLACLPQAAACAPDLPAFSHGGFSHN
modifications: full-length
notes: recombinant human SSAO, full-length untagged, in CHO Flp-In cell lysate
specific activity of recombinant SSAO: 280 pmol/min/mg protein
